Target: microtubules polymerized from porcine tubulin (porcine, UniProt P02550 1-451; Q767L7 1-444, Alexa Fluor 647 NHS ester on 20% of the tubulin in fluorescently labeled microtubules | Alexa Fluor 647 NHS ester on 20% of the tubulin in fluorescently labeled microtubules)
Assay: single-molecule TIRF microscopy, two-colour co-movement on immobilised microtubules; KIF5B construct and 175 nM TRAK1 construct pre-incubated 10 min on ice, flushed onto bare immobilised microtubules in motility buffer with 1 mM Mg-ATP; room temperature; for the complexes traces of the mCherry-TRAK1 channel analysed
Details: both partners purified

B1: KIF5B-GFP-mCherry-TRAK1 complex (complex)
chain 1: MADLAECNIKVMCRFRPLNESEVNRGDKYIAKFQGEDTVVIASKPYAFDRVFQSSTSQEQVYNDCAKKIVKDVLEGYNGTIFAYGQTSSGKTHTMEGKLHDPEGMGIIPRIVQDIFNYIYSMDENLEFHIKVSYFEIYLDKIRDLLDVSKTNLSVHEDKNRVPYVKGCTERFVCSPDEVMDTIDEGKSNRHVAVTNMNEHSSRSHSIFLINVKQENTQTEQKLSGKLYLVDLAGSEKVSKTGAEGAVLDEAKNINKSLSALGNVISALAEGSTYVPYRDSKMTRILQDSLGGNCRTTIVICCSPSSYNESETKSTLLFGQRAKTIKNTVCVNVELTAEQWKKKYEKEKEKNKILRNTIQWLENELNRWRNGETVPIDEQFDKEKANLEAFTVDKDITLTNDKPATAIGVIGNFTDAERRKCEEEIAKLYKQLDDKDEEINQQSQLVEKLKTQMLDQEELLASTRRDQDNMQAELNRLQAENDASKEEVKEVLQALEELAVNYDQKSQEVEDKTKEYELLSDELNQKSATLASIDAELQKLKEMTNHQKKRAAEMMASLLKDLAEIGIAVGNNDVKQPEGTGMIDEEFTVARLYISKMKSEVKTMVKRCKQLESTQTESNKKMEENEKELAACQLRISQHEAKIKSLTEYLQNVEQKKRQLEESVDALSEELVQLRAQEKVHEMEKEHLNKVQTANEVKQAVEQQIQSHRETHQKQISSLRDEVEAKAKLITDLQDQNQKMMLEQERLRVEHEKLKATDQEKSRKLHELTVMQDRREQARQDLKGLEETVAKELQTLHNLRKLFVQDLATRVKKSAEIDSDDTGGSAAQKQKISFLENNLEQLTKVHKQLVRDNADLRCELPKLEKRLRATAERVKALESALKEAKENASRDRKRYQQEVDRIKEAVRSKNMARRGHSAQIAKPIRPGQHPAASPTHPSAIRGGGAFVQNSQPVAVRGGGGKQV
chain 2: MALVFQFGQPVRAQPLPGLCHGKLIRTNACDVCNSTDLPEVEIISLLEEQLPHYKLRADTIYGYDHDDWLHTPLISPDANIDLTTEQIEETLKYFLLCAERVGQMTKTYNDIDAVTRLLEEKERDLELAARIGQSLLKKNKTLTERNELLEEQVEHIREEVSQLRHELSMKDELLQFYTSAAEESEPESVCSTPLKRNESSSSVQNYFHLDSLQKKLKDLEEENVVLRSEASQLKTETITYEEKEQQLVNDCVKELRDANVQIASISEELAKKTEDAARQQEEITHLLSQIVDLQKKAKACAVENEELVQHLGAAKDAQRQLTAELRELEDKYAECMEMLHEAQEELKNLRNKTMPNTTSRRYHSLGLFPMDSLAAEIEGTMRKELQLEEAESPDITHQKRVFETVRNINQVVKQRSLTPSPMNIPGSNQSSAMNSLLSSCVSTPRSSFYGSDIGNVVLDNKTNSIILETEAADLGNDERSKKPGTPGTPGSHDLETALRRLSLRRENYLSERRFFEEEQERKLQELAEKGELRSGSLTPTESIMSLGTHSRFSEFTGFSGMSFSSRSYLPEKLQIVKPLEGSATLHHWQQLAQPHLGGILDPRPGVVTKGFRTLDVDLDEVYCLNDFEEDDTGDHISLPRLATSTPVQHPETSAHHPGKCMSQTNSTFTFTTCRILHPSDELTRVTPSLNSAPTPACGSTSHLKSTPVATPCTPRRLSLAESFTNTRESTTTMSTSLGLVWLLKERGISAAVYDPQSWDRAGRGSLLHSYTPKMAVIPSTPPNSPMQTPTSSPPSFEFKCTSPPYDNFLASKPASSILREVREKNVRSSESQTDVSVSNLNLVDKVRRFGVAKVVNSGRAHVPTLTEEQGPLLCGPPGPAPALVPRGLVPEGLPLRCPTVTSAIGGLQLNSGIRRNRSFPTMVGSSMQMKAPVTLTSGILMGAKLSKQTSLR
notes: KIF5B, kinesin-1 heavy chain, human, amino acids 1-963; as m1; TRAK1, cDNA KIAA1042; as m5; Only traces of mCherry-TRAK1 were analysed, so that the moving particles are complexes; also called KIF5B-TRAK1 transport complex; source: the two purified proteins (m1 from SF9, m5 from HEK293T) pre-incubated 10 min on ice; not shown: GFP, C-terminal, kept; 6xHis, C-terminal, cleaved; mCherry, N-terminal, …
  median interaction time with microtubules: 19.3 s
